Measured values from patent US20140179594A1, “STREPTOCOCCUS BACTERIOPHAGE LYSINS FOR TREATMENT OF GRAM POSITIVE BACTERIA IN COMPANION ANIMALS AND LIVESTOCK” (priority 2011, published 2014).
Where two headings read alike, the source gives them in different places.

What was measured:
B. anthracis ΔSterne = type: cell-based
M. luteus 4698 = experiment: ΔPlySs1 OD600 lysis, 1 hr; type: cell-based
S. rattus BHT = experiment: ΔPlySs1 OD600 lysis, 1 hr; type: cell-based
S. dysgalactiae GGS = experiment: ΔPlySs1 OD600 lysis, 1 hr; type: cell-based
B. cereus 14579 = experiment: ΔPlySs1 OD600 lysis, 1 hr; type: cell-based
E. faecalis V583 = experiment: ΔPlySs1 OD600 lysis, 1 hr; type: cell-based
S. dysgalactiae 21597 = experiment: ΔPlySs1 OD600 lysis, 1 hr; type: cell-based
[1] = tested on: purified S. suis cell walls (from type strain 5735); experiment: PlySs1 bond specificity, double digestion with HEWL, mass spectrum; type: biochemical; settings: double digestion with HEWL and PlySs1
Excerpt: To determine the bond specificity of the enzymatic domain of PlySs1, purified S. suis cell walls (from type strain 5735) were subject to double digestion with HEWL (a muramidase) and PlySs1. The two predominant peaks were m/z=718 and m/z=734. This corresponds exactly to the predicted masses of the [Na-M]+ and [K-M]+ adducts of GlcNAc-MurNAc-LAla-D-Gln. […] When a mass spectrum was taken of undigested cell wall, the above two peaks were absent.

S. sobrinus 6715 = experiment: ΔPlySs1 OD600 lysis, 1 hr; type: cell-based
S. pneumoniae R36 = experiment: ΔPlySs1 OD600 lysis, 1 hr; type: cell-based
B. subtilis SL4 = experiment: ΔPlySs1 OD600 lysis, 1 hr; type: cell-based
S. suis strain 7711 = experiment: ΔPlySs1 growth inhibition in BHI broth; type: cell-based; settings: strain 7711 in BHI broth, overnight
Protocol: The optical density of each sample was measured continuously overnight in 96-well plate format. Overall, bacterial growth was delayed in a dose-dependent manner. However, for enzyme-concentrations that were sufficient to induce lysis in buffered solutions (130 and 50 μg/ml), the effect was quite minimal here. […] For all of the treated samples, one will note that the final optical densities are actually higher than that of the untreated sample. This is an artifact of the accumulation of aggregated bacterial debris that occurred in the presence of lytic enzyme.
Given the above experiments, the following optimal buffering conditions were employed for all further in vitro experiments with ΔPlySs1: 20 mM phosphate buffer, pH=7.8, 2 mM EDTA. A range of lysin concentrations, from 6.5-130 μg/ml, were introduced to live S. suis cells in this buffer. Three strains were considered particularly relevant: 7711, the serotype 7 strain that encodes PlySs1; 5735, the serotype 2 reference strain; and 7997, a highly virulent serotype 9 strain. In terms of bacterial viability, only the highest PlySs1-concentration (130 μg/ml) led to a >90% decrease in CFUs for 7711, S735, and 7997 after 1 hr treatment (TABLE 2). The lysin was also tested against actively-dividing cells in broth culture (strain 7711) (FIG. 20).

B1: ΔPlySs1: truncated PlySs1 lysin with N-terminal enzymatic and central binding domains, N-terminal 254 amino acids, SEQ ID NO:2 (protein, listed as Streptococcus suis)
chain: MTINLETSIRWMSDRVGKVSYSMDYRNGPNSYDCSSAVYYALMAGGAISAGWAVNTEYMHDWLIRNGYVLVAENKPFNAQRHDVCILGKRGYSSGAGGHVVIFVDNVNVIHCNYARNGISIDNYNQVHRGMYYYLYRPANQPSISNKSLDQLVKETLAGVHGNGDTRKASLGSQYEAVMAVINGKASASEKSDEELAREVLAGKHGAGEDRKRSLGPRYEPVQAKVNELLKAKEKPSETAKNEPQTVQFKEDGDL
B. anthracis ΔSterne; 6.5 μg/ml
  1-hour treated/untreated OD600-ratio: 1.02
B. anthracis ΔSterne; 30 μg/ml
  1-hour treated/untreated OD600-ratio: 1.02
B. anthracis ΔSterne; 65 μg/ml
  1-hour treated/untreated OD600-ratio: 0.98
B. anthracis ΔSterne; 130 μg/ml
  1-hour treated/untreated OD600-ratio: 0.90
M. luteus 4698; 6.5 μg/ml
  1-hour treated/untreated OD600-ratio: 0.84
M. luteus 4698; 13 μg/ml
  1-hour treated/untreated OD600-ratio: 0.90
M. luteus 4698; 30 μg/ml
  1-hour treated/untreated OD600-ratio: 0.83
M. luteus 4698; 65 μg/ml
  1-hour treated/untreated OD600-ratio: 0.87
M. luteus 4698; 130 μg/ml
  1-hour treated/untreated OD600-ratio: 0.82
S. rattus BHT; 6.5 μg/ml
  1-hour treated/untreated OD600-ratio: 0.82
S. rattus BHT; 13 μg/ml
  1-hour treated/untreated OD600-ratio: 0.84
S. rattus BHT; 30 μg/ml
  1-hour treated/untreated OD600-ratio: 0.82
S. rattus BHT; 65 μg/ml
  1-hour treated/untreated OD600-ratio: 0.83
S. rattus BHT; 130 μg/ml
  1-hour treated/untreated OD600-ratio: 0.79
S. dysgalactiae GGS; 6.5 μg/ml
  1-hour treated/untreated OD600-ratio: 0.30
S. dysgalactiae GGS; 13 μg/ml
  1-hour treated/untreated OD600-ratio: 0.27
S. dysgalactiae GGS; 30 μg/ml
  1-hour treated/untreated OD600-ratio: 0.15
S. dysgalactiae GGS; 65 μg/ml
  1-hour treated/untreated OD600-ratio: 0.11
S. dysgalactiae GGS; 130 μg/ml
  1-hour treated/untreated OD600-ratio: 0.14
B. cereus 14579; 6.5 μg/ml
  1-hour treated/untreated OD600-ratio: 0.93
B. cereus 14579; 13 μg/ml
  1-hour treated/untreated OD600-ratio: 0.92
B. cereus 14579; 30 μg/ml
  1-hour treated/untreated OD600-ratio: 0.86
B. cereus 14579; 65 μg/ml
  1-hour treated/untreated OD600-ratio: 0.90
B. cereus 14579; 130 μg/ml
  1-hour treated/untreated OD600-ratio: 0.86
E. faecalis V583; 6.5 μg/ml
  1-hour treated/untreated OD600-ratio: 0.98
E. faecalis V583; 13 μg/ml
  1-hour treated/untreated OD600-ratio: 0.93
E. faecalis V583; 30 μg/ml
  1-hour treated/untreated OD600-ratio: 0.84
E. faecalis V583; 65 μg/ml
  1-hour treated/untreated OD600-ratio: 0.71
E. faecalis V583; 130 μg/ml
  1-hour treated/untreated OD600-ratio: 0.52
S. dysgalactiae 21597; 6.5 μg/ml
  1-hour treated/untreated OD600-ratio: 0.26
S. dysgalactiae 21597; 13 μg/ml
  1-hour treated/untreated OD600-ratio: 0.18
S. dysgalactiae 21597; 30 μg/ml
  1-hour treated/untreated OD600-ratio: 0.12
S. dysgalactiae 21597; 65 μg/ml
  1-hour treated/untreated OD600-ratio: 0.10
S. dysgalactiae 21597; 130 μg/ml
  1-hour treated/untreated OD600-ratio: 0.09
[1]
  bond specificity of the enzymatic domain: gamma-endopeptidase activity
S. sobrinus 6715; 6.5 μg/ml
  1-hour treated/untreated OD600-ratio: 0.64
S. sobrinus 6715; 13 μg/ml
  1-hour treated/untreated OD600-ratio: 0.48
S. sobrinus 6715; 30 μg/ml
  1-hour treated/untreated OD600-ratio: 0.39
S. sobrinus 6715; 65 μg/ml
  1-hour treated/untreated OD600-ratio: 0.32
S. sobrinus 6715; 130 μg/ml
  1-hour treated/untreated OD600-ratio: 0.23
S. pneumoniae R36; 6.5 μg/ml
  1-hour treated/untreated OD600-ratio: 0.25
S. pneumoniae R36; 13 μg/ml
  1-hour treated/untreated OD600-ratio: 0.22
S. pneumoniae R36; 30 μg/ml
  1-hour treated/untreated OD600-ratio: 0.14
S. pneumoniae R36; 65 μg/ml
  1-hour treated/untreated OD600-ratio: 0.16
S. pneumoniae R36; 130 μg/ml
  1-hour treated/untreated OD600-ratio: 0.12
B. subtilis SL4; 6.5 μg/ml
  1-hour treated/untreated OD600-ratio: 1.07
B. subtilis SL4; 13 μg/ml
  1-hour treated/untreated OD600-ratio: 1.05
B. subtilis SL4; 30 μg/ml
  1-hour treated/untreated OD600-ratio: 1.04
B. subtilis SL4; 65 μg/ml
  1-hour treated/untreated OD600-ratio: 1.03
B. subtilis SL4; 130 μg/ml
  1-hour treated/untreated OD600-ratio: 0.96
S. suis strain 7711
  growth inhibition of actively-dividing cells: could not inhibit S. suis growth outright
